Test results from the NTF2 design screens of Basanta et al. (2020).

Experiment: protease stability score; higher = more stable; yeast display proteolysis, trypsin and chymotrypsin;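 further: relative to predicted unfolded state with 0 unfolded-like and 1 meaning tenfold more protease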

Row | Sequence | protease stability score
1 | SDIEDHAIEFFSNELWSWHTGDEHDLKKLLDPNARIYINGVEVHGRERVLEDLIENMRRRGVRVNEVRVRDFHIVGNFLHFDVRIKYRVGDKILTYEVRILVLKIDGVWFFSELRIE | 1.55
2 | SEEEKRMTEDAEHFWRRFLTGDWRTLSRLIDPHVIIHINGVDLHGRHDAHREMEEHAEQFKNIKVHIDHIDVVGDKLHVDVTININGRRFKEEIIIVMFNGRVKELEVRTH | 1.61
3 | DEEEHSYEWAHKVSRHTTETGNEDLSRELADPNVRVIIGDKEYHGWKFMTHLLAHLRIKHIIIRSIRVQGNKLDLNEEVHGEIDGKDETFKLDLVILKVNGRWVIKSVRVE | 0.612
4 | DEQERRSRELLHLWLELFETGDEDNMQEFLDPNVRLIIIQGDNQVNHHGWENMVKIAKFYKNMQIKVHDVEFQGDKVIMDTRLLVDGRLRHTTVILDIVNGVIKHVEIRYS | 1.69
5 | NEDEEIVRERFEEFLDMMFTGDWTSLEKLLDPHYRLDIGDKHHHGREEFIEFVRKIKNLRIDIKRVSVIVIDGRAINHVDGVLHFNGKTEKVHIIVVAKKIDGRWIVERVTIETH | 2.08
6 | DEREKETERMLELFIKVLLTGNEHDLMKLADPHVKLDINGREIHGREHLEEMWRHLWIDDSKRREVRNVGEWSHIYGETDGTFNGKKVRDTVEIRLYIVNGKAHRIYIIER | 0.655
7 | DETRELLDRLWERLVKALRTGDEDHVHDMLDPHVRIEIGDKILHGREALEVLWKRIDHISIHDFKLKRERRFENRIEVDGEVDGIVRIDGRENRHVTDTHYILVKIDGQWLIKTIHIK | 2.29
8 | EEEERESEEKFRLLLELLRTGDEEILKHMADPNTKIVINGVDLHGWKEWHRIMRRFKNVTIRFKELWVYGDKAQARVEFDIDGKSFEMELHFVVINGRLKSIHVHSH | 2.11
9 | DEDHESWERAYNIYLHALRTGDEERNHELADPRVLTHIDGVELHGREMMTRVMTELRIHEHRIHRVHIIGEKIDIDIEVRFRWNGKLVDTRTHEHRLKVDGKWLLTRFEVR | 0.76
10 | RDSEEKDKIFLSIVESAILTGDPETSEKMADPNVRIDFNGKDLVGREDYHRFVKRWLEEARFHKLVIHELRHVDGRMDSHTQEIVDIDGRRYTHDTHIIMLKIDGRWILHSKTVR | 0.986
11 | SHNEEQSEREAKLEIEAYLTGDFDTLHRLADPNVRNNIEYGDKEIRLHGREEWVHQFYKLVEEYKGVKIHLQHLEYQGDKVILRIEIRVNGRERVLEIQIHVINGRSKEVNVETHVH | 1.18
12 | DKEEDEFRKAFEIVRHTWKTGDEHLLEKLMDPDARMDVNGVHNHGREEATKTVFEIVEKIKNARLEFKRIEVYDGRIFFHMDWDVNGVRVFVLIISIKVDGRWRHKSYSEDRV | 0.856
13 | DDEDHELEWMYRIMLRILETGDEDEYKKFADPNTRLLIDFNGRIIDDHGREHVKRSIFEWLEHARIRRKEKKTERHIDGRVILHMRMDVDVNGRRIDRDVLIIIVVINGKFREVDIQYR | 0.931
14 | DETFKEQEKLIERLERVERTGDWKEWERLADPNVRMDIDGVEIIGMEMVTEFILREMRHLGVTRIRIEIKEIRVIGDKIRIDGQIQQGNKETRFILIVSKIDGRWRLEESYVH | 1.06
15 | DEEEHHMKLAYDILLQTLRTGDEDLMERLIDPNVRFELLIGDFILHIHGWELVVEWDIRIARQWRIEHVHIKRYEVFNGRSRVNVKIDGVVNGRRYRFDIIELSLVIDGRVHHRSQEII | 0.835
16 | DRDQHQAEKAFKLLVDILQTGDEEEIYKMADPHMQIDFDGRLHHGRDEFVKLVSETIRKFKNIRVEIHHIEVFDGRMHTDSRIHVGDKEWTIDIHIQKVNGKWKLKHVRVD | 0.945
17 | SEDEEHAERMLRILIELLLTGNESDFLRYADPNVRTIVGDKTFHGRDEFRTAWEWFLREIRLRHIELKHVEIQGNKVRVHGIWNIEINGRHIRLHVLIEIVVVDGVLRETRFEIR | 1.47
18 | EEEKKETEHWIETFYRIINTGDEETWSKMADPDMRLEVLIDGKKLELHGRDAFEDFVSKMGFDHVHIHDMEVIGEKAHIHTELRYGDKHIRFEIQLVVVNGRYKSVTIRRK | 1.75
19 | SEEDEEVRHVLELLIHAWRTGDERLLMHLLDPHAKFIVGDKELHGREQISRVWKELRIEDSDVHSIELVNGRLRLDTHLIITIGDKHVDVKTRELIVKIDGRWVLEFLEVR | 1.37
20 | TEDDENAKMIMHLLYNHMKTGDFDTLVDMVDPHARNIIDGRELVGWEHFYRWLHELGFNHNELRVRDIKHFDGKVDVDVELILNVGDKHLRIRTTFIVRKVNGRWFIESIRLK | 1.38
21 | HESHNRVERILEEFFKAVETGDWRVLHELLDPHVRLDVDGRDHHGREDFSRFMKEIRVEEFRVTHLQIQGDKANVQSHRVGTYNGKRQEIRTWIHITKIDGQWYITEVTME | 0.544
22 | LEDEEMLEEVDKRLVHAFLTGDFNTIERMLDPDTKVRINGRESIGRENVAKVLHEERRHMRLDIIEIRRIRLVGEFIHSDTRLDININGRRIKFTFRIIVLKINGQWIVESLEID | 2.06
23 | DEDKHLIETFLERLERILKTGDEEDERRLADPHAKLVQGDKILHGREELIRWLRELGAKHVRLHISHLDVQGDKVETDLRLIIIQGDKEYEKDMKVHVLKVDGRWLLKSIIVE | 2.08
24 | SEEEKELKTLVEELWHAWETGDEDFIHKYMDPHARLHIGDKDHHGREEIRESLRQHREHLRIEHVHRHHVKLVDGRIETHGHILGHIGDKRFETEMIIIIIVINGRIRSMKFDYR | 1.03
25 | KHEEDEWKRMIDIVLHMLKTGNFELLERLADPHARSHIDGVRIHGREKFVEILFEVWHFYKNLTISINHIDVFNGVIVIHGRLDINGRQVEVHIVVTKINGKWFLESHSEIFH | 0.572

Row | Sequence | protease stability score
26 | DHEHRELRELIHRIEKNIRTGNWDVVEKMLDPHARIDIDGKEIHGRDRLVEEMVKQWEKMGVDHIEIKLEDYKVSENEVYLDMIFVIRVGDKVIFIDSHIISRKIDGRWIIHSIHFR | 1.95
27 | DELDDITEHLLHRFVDSLITGDEDLLEKYADPNAKLIIEIGDKRIERHGMHRFYELLLRFKNVKLDVKEIHVQGDKATIESTLQYGDKKHDTRLEVEFYDGRLKIIRWEIR | 2.25
28 | SDEHEWERHLYHVLIHAVNTGDEDLVTEMMDPHVRTDINGVELHGRNELSRQLKEMGIKHLEIEHLDFVGNFLVSQVRVDVNGVDYKSEIIALKINGKWLLSELRLE | 1.04
29 | DEDKKELEEMFRILKEMWETGDWREESRMVDPHARVDINGVELHGREFIMEHIHRVKNMRFEIKRFDVVNGVLEIVGELHQGDKKHRVTIHALKFDGKWLQETVIIG | 1.6
30 | SESEHKAREMIRLIEHFLITGDEESWHRLFDPHTRVVIDGREIHGMEIYNHWLKELRIRDSHIHIRTIEDINGRINIHGELQLHGIINGQTHDFRSHIDLHVLKFNGRWHMETYIIS | 1.57
31 | TEEERIDHEYEERLKHSFETGDEETIKKMIDPNARVEIDGKDHHGREVMAHLISRIDVLHTVDTTDVSIQGDKINLNLRVHGHVNGKHIDRTLHVRIRKINGKWHIEHFKII | 1.04
32 | DEEEEHLRKIMEEMTRANETGDFESWARNADPDYQLNVGDKRKHGREDWQEDLKRVDHLRLEVRIRRMRDVDGRIEVVGDLIIFIKVGEYEFESHSKVIIYIIKINGRWFIKSIEFL | 1
33 | DEEKESAERWLHIFLHSMDTGDEDKIRKLLDPNVLNDVGDKVLIGRELAFKWFHHLRFRKVHLRDFRIINGRIEVDIDVRGEINGKEDHFRLEVDLRKINGRWVLHEIRID | 2.81
34 | DEEEKVEDDMLHRWLQYFLTGDEEHLLELADPRVRVRINGKDDHGMNAVERFWEEYRRKFKNVRIHIHDMRYYDGVIHVDGILQINGKTLKIEFIIVIVNGRIRFITENIR | 1.73
35 | TEDDRDFKLALELVEHHIKTGDEDDMSRLADPHVRIDDENETHHGREEFEEFVHRMIKRFKNIKWELKRTESQGDKIRIDFRIHVGDKTLRLIIIAEKVDGRWLIHTVIIN | 1.35
36 | SEEEEHWHTLAHMIVHWWLTGDEDAFMELADPHVRFEQGDYESVGMENVRERWRMIKEEIRIHEIRVHDVRFINGVIEVDTRLIRTFNGVREEVDYRVEIVEYNGRVKRVKLEIR | 1.33
37 | DELWELAFFIMKILLHLHLTGDEEMWSSYADPNVRFTLRVGDKEVKRHGMEDVEKFQTELEREIRVDHFDERRTHYYNGRARVDGHIDGLVNGRPVHFRTELHVHTIDGVVREVEIIIE | -0.045
38 | SEEDEMIEELMRTIIRLFHTGDWEKKAKLMDPNTRSVIGDKHAHGREEIVRLFLEYWRELGIDHISIHDVKLQGDKVIVNGKLRVGEKTIDVRIHYVVVNGRLKSERFEEE | 0.327
39 | RDKERMVHFIANYVLHSVLTGDWKMLFDLLDPSMRLEIGEKDSHGRENAEKLLHEFLEKLGADHTDIRRSHVTFQGDKIIIIINTEIDINGVRHEIWVRVIILKIDGKWVLESIRIEIR | 1.54
40 | DEDEEFAKELLERTAESIVTGDEDMWREYFDPHARIEFNGKDYHGWHEFERMLRELRVHRVEVEVKRVHLYDGRMDVKGELHIKGTFDGRRVEESTDVDYFIIKIDGQWYIRHETII | 0.761
41 | DEKDNVVEHLARRLIEAELTGDWKFLSELIDPNVRVQVGNKKSHGREEYVHIAEEWWIHEQHIRHVEIQGDKVHLEVETDMVVDGRRVRIEIEIHIHIINGRIKEIRINIV | 0.989
42 | SEEDEIMRRLIDITLHAFQTGDWEAVKTMADPNTRLHVNGRDIHGRDEILRFLEKSRRDLGVENIRIDYTDYRQFDGKVKYHGTDIYNGQRLETTIIIVIVDGKMKTETREIR | 0.82
43 | DEDERNVRDVAYLLLHALWTGDEDMLRHLIDPDVRFHIDGRHHHGWLRVLEMFREIRIHDFRMHDEKFRIIGDKAEARFDGESIVVIDGKEVDRRVEERYIIVKVNGQWRLKMIEVHLR | 1.55
44 | DHEEEEAERMARKIIHVLHTGDFDSWSHLADPNVRIEVGDKELHGREDLRKLFHLWDERFKNATIMVKDMRVQGNKVHLDHRLNIDGRTIHTTSEIIVINGRIHTVIIDEK | 2.29
45 | SEHDEHIEHLLKEIIEDIETGDWHHWRHLADPHTRMEVGDKEKHGWKVYFEILHRYRGARLEFKSVDVQGDKIHVETHVHVNGRSFDTELRFYIVNGKMQEVIIQFR | 0.85
46 | SEEEEDTERALRLELNLLMTGDEEQFWKNMDPHVRTHFNGQERHGREYATHVLRQLGVKHVRLHDVRIIGDKIDIDMRTNVDGRIFRVHIHSEKVNGRWHIHEFFIE | 1.07
47 | EETREASRIALEIFIRDLVTGNEDSLERLADPDTKFIINGRNYHGMEFLREEIRKWLERFKNIRVEVKVHHQRVFENHIEMDGRLDFNYDGQKEILEVRLFMVKFNGKWYIHSIEIR | 2.24
48 | DEEEEDAHRLMHNVVHALRTGDWEEFSRLLDPNVMVIIGDKLFIGRETVLEMIKRMLDDWGVTRIHLHIHSKHVQGNKLHVDSQIDVNGRTTRVHIDATKIDGRWLLKRIEIK | 2.14
49 | DELKKILDEYIEDHLRAVHTGDEDRVKHQIDPHVRIDVNGVELIGMEDWKKFLDILGVDNIQVDRYEIKDYHLVGDKATLHEHRDVKYNGVRSRHNINFVVQKIDGKWYFTEYQTE | 0.399
50 | DEDERHFEIWFKLFIHLYLTGNEETLRHLADPNVRTVYNGRDFHGWDEMVRIHHEMFDFYKGLRVEKVNVESVEIFDGRVLILLRIRVLVNGRTTDDHIHVEAKKIDGQWIIESVDFR | 1.65
